Results: PMC6692406, “Optimization of a reduced enzymatic reaction cascade for the production of L-alanine” (Scientific Reports, 2019)
Values belong to the molecule of their own block, whether it stands above or below them.

Tests used:
[1] = target: T1, CcDHAD (dihydroxyacid dehydratase) (Caulobacter vibrioides, UniProt Q9A9Z2); test: inhibition of D-gluconate dehydration (experimental analysis in Figure S2); assay type: biochemical
T1 construct: gene xylD; codon-optimised gene in pET28a, recombinant in E. coli BL21(DE3), purified on His GraviTrap; MnCl2 added before freezing
T1 sequence (Q9A9Z2 1-595): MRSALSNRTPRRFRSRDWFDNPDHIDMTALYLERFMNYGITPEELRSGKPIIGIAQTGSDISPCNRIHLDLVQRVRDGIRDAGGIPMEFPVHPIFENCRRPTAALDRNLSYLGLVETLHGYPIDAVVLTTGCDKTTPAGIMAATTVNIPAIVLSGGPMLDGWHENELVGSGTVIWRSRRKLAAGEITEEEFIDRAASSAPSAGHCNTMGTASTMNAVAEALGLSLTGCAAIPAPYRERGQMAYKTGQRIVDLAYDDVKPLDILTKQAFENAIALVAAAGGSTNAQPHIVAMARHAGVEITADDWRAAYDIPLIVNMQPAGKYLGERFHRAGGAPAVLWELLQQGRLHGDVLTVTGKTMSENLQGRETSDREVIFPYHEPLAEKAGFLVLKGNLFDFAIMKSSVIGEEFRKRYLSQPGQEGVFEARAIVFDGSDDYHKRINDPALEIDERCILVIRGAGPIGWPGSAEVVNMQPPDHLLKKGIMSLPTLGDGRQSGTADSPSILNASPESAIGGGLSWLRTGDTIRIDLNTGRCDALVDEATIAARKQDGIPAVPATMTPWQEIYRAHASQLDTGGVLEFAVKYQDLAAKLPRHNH

[2] = substrate: O=C(O)C(=O)C[C@H](O)[C@H](O)CO; test: purified protein; assay type: biochemical, Picrophilus oshimae; details: 0.03-3 mM KDG, 1 mM NAD, 50 °C, 100 mM HEPES pH 7.35, 100 mM ammonium sulfate
[3] = substrate: O=C[C@H](O)CO; test: purified protein; details: substrate not named in table (D-glyceraldehyde from the cascade), cofactor NAD, 50 °C, 100 mM HEPES pH 7.35, 100 mM ammonium sulfate
[4] = substrate: NC(=O)c1ccc[n+]([C@@H]2O[C@H](COP(=O)(O)OP(=O)(O)OC[C@H]3O[C@@H](n4cnc5c(N)ncnc54)[C@H](O)[C@@H]3O)[C@@H](O)[C@H]2O)c1; test: purified protein; assay type: biochemical, Methanocaldococcus jannaschii; details: 50 °C, 100 mM HEPES pH 7.35, 100 mM ammonium sulfate, varied: cofactor
[5] = substrate: CC(=O)C(=O)O; test: purified protein; assay type: biochemical, Archaeoglobus fulgidus; details: 0.1-1 mM pyruvate, 0.2 mM NADH, 100 mM (NH4)2SO4, 50 °C, 100 mM HEPES pH 7.35
[6] = substrate: NC(=O)C1=CN([C@@H]2O[C@H](COP(=O)(O)OP(=O)(O)OC[C@H]3O[C@@H](n4cnc5c(N)ncnc54)[C@H](O)[C@@H]3O)[C@@H](O)[C@H]2O)C=CC1; test: purified protein; assay type: biochemical, Archaeoglobus fulgidus; details: 0.005-0.3 mM NADH, 1 mM pyruvate, 100 mM (NH4)2SO4, 50 °C, 100 mM HEPES pH 7.35, varied: cofactor
[7] = substrate: O=C(O)[C@H](O)[C@@H](O)[C@H](O)[C@H](O)CO; test: purified protein; assay type: biochemical, Caulobacter vibrioides; details: 0.2-20 mM D-gluconate, 1 mM NAD, 50 °C, 100 mM HEPES pH 7.35, 100 mM ammonium sulfate, enzyme stored with MnCl2

Ki [1]: ~500 µM
Molecule: O=C(O)[C@H](O)CO [D-glycerate]

B1: PtKDGA (2-keto-3-deoxygluconate aldolase) (Picrophilus oshimae DSM 9789) (protein)
chain: MITPLDAHGNIDYNATNILIKYLEGINVDYLFPMGSTGVFPYFTLKERKDFLKFVRENSKKPIMAGVGSSSINEVNELMKFSMDIGIEAAVLMPPYYIKLNQEAIYHYYKEILSSNDMDLLIYNIPQFTNKIDPETVKNLKSEFSSVKGVKDSSADIRGFMEMLSLSDDDFAVFQGQDDLLFTSLELGASGGVCGTTNFSDGIVRLYHEYKNNREMALKIEKNDVIPLMKKLGKYQFPNAYYEYFYKKNNINGGYRPPMYRVGIEI
notes: codon-optimised gene in pET28a, recombinant in E. coli BL21(DE3), heat treated (65 °C) and purified on His GraviTrap
Km [2]: 1100 µM

B2: MjALDH (aldehyde dehydrogenase) (Methanocaldococcus jannaschii DSM 2661) (protein)
chain: MFIDGKWINREDMDVINPYSLEVIKKIPALSREEAKEAIDTAEKYKEVMKNLPITKRYNILMNIAKQIKEKKEELAKILAIDAGKPIKQARVEVERSIGTFKLAAFYVKEHRDEVIPSDDRLIFTRREPVGIVGAITPFNFPLNLSAHKIAPAIATGNVIVHHPSSKAPLVCIELAKIIENALKKYNVPLGVYNLLTGAGEVVGDEIVVNEKVNMISFTGSSKVGELITKKAGFKKIALELGGVNPNIVLKDADLNKAVNALIKGSFIYAGQVCISVGMILVDESIADKFIEMFVNKAKVLNVGNPLDEKTDVGPLISVEHAEWVEKVVEKAIDEGGKLLLGGKRDKALFYPTILEVDRDNILCKTETFAPVIPIIRTNEEEMIDIANSTEYGLHSAIFTNDINKSLKFAENLEFGGVVINDSSLFRQDNMPFGGVKKSGLGREGVKYAMEEMSNIKTIIISK
notes: codon-optimised gene in pET28a (NcoI/XhoI), recombinant in E. coli BL21(DE3), purified by heat treatment (70 °C) and desalting
Km [3]: 300 µM
Km [4]: 300 µM

B3: AfAlaDH (L-alanine dehydrogenase) (Archaeoglobus fulgidus DSM 4304) (protein)
chain: METLILTQEEVESLISMDEAMNAVEEAFRLYALGKAQMPPKVYLEFEKGDLRAMPAHLMGYAGLKWVNSHPGNPDKGLPTVMALMILNSPETGFPLAVMDATYTTSLRTGAAGGIAAKYLARKNSSVFGFIGCGTQAYFQLEALRRVFDIGEVKAYDVREKAAKKFVSYCEDRGISASVQPAEEASRCDVLVTTTPSRKPVVKAEWVEEGTHINAIGADGPGKQELDVEILKKAKIVVDDLEQAKHGGEINVAVSKGVIGVEDVHATIGEVIAGLKDGRESDEEITIFDSTGLAIQDVAVAKVVYENALSKNVGSKIKFFRI
notes: codon-optimised gene in pET24a, recombinant in E. coli BL21(DE3), purified by heat treatment (70 °C) and desalting
Km [5]: 200 µM
Km [6]: 60 µM

B4: CcDHAD (dihydroxyacid dehydratase) (Caulobacter vibrioides CB15) (protein)
chain: T1 sequence (Q9A9Z2 1-595)
notes: codon-optimised gene in pET28a, recombinant in E. coli BL21(DE3), purified on His GraviTrap; MnCl2 added before freezing
Km [7]: 3200 µM
